Measured values as given in patent publication US20230075633A1 (SHANDONG BOAN BIOTECHNOLOGY, published 2023).
Read-outs that look alike come from different tables or passages of the source.

T1: human CEA (human, UniProt P06731 35-702)
T1 sequence (looked up): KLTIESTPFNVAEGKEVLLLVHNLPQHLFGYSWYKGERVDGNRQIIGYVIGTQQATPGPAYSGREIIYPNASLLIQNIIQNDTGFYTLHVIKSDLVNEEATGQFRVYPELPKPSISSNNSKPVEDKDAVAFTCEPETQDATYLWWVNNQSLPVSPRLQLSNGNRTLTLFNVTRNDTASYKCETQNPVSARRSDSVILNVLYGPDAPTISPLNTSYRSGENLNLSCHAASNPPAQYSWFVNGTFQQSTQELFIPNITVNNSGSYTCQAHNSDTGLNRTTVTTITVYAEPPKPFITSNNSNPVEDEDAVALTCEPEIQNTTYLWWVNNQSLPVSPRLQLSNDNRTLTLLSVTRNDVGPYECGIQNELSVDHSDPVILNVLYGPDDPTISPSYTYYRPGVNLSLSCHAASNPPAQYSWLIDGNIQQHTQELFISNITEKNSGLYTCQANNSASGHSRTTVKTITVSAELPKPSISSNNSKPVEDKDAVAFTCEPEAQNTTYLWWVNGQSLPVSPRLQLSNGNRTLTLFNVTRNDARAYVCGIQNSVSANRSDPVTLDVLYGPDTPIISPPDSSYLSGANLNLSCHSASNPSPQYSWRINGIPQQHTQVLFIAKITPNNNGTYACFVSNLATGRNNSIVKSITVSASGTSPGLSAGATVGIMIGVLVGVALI

T2: Cynomolgus monkey CD3 protein (cynomolgus monkey, UniProt Q95LI5 22-117)
T2 sequence (looked up): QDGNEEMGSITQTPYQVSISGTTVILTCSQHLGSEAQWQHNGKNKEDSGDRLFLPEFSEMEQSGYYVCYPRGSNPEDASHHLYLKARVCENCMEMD


How the values were obtained:
human CD3 [1] = target: T3, human CD3 (human, UniProt P07766 23-207); experiment: cell-based or functional assay
human CD3 [2] = target: T3, human CD3; experiment: cell-based or functional assay; remark: listed apart in the source
human CEA [3] = target: T1, human CEA; experiment: cell-based or functional assay
human CEA [4] = target: T1, human CEA; experiment: cell-based or functional assay; remark: listed apart in the source
[5] = target: T2, Cynomolgus monkey CD3 protein; experiment: ELISA on cynomolgus monkey CD3 protein, curve fit

T3 sequence (P07766 23-207): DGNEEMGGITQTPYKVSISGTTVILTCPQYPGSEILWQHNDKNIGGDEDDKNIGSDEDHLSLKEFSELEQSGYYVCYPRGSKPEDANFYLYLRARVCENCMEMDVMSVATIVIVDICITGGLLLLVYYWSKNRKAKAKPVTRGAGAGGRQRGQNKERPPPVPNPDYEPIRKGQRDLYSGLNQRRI

NFAT-luciferase in Jurkat cells: Bottom (human CD3 [1])	NFAT-luciferase in Jurkat cells: LogEC50 (human CD3 [1])	NFAT-luciferase in Jurkat cells: Span (human CD3 [1])	NFAT-luciferase in Jurkat cells: Top (human CD3 [1])	NFAT-luciferase in Jurkat cells: Bottom (human CD3 [2])	NFAT-luciferase in Jurkat cells: LogEC50 (human CD3 [2])	NFAT-luciferase in Jurkat cells: Span (human CD3 [2])	NFAT-luciferase in Jurkat cells: Top (human CD3 [2])	lysis of LS-174T cells by PBMC: Bottom (human CEA [3])	lysis of LS-174T cells by PBMC: LogEC50 (human CEA [3])	lysis of LS-174T cells by PBMC: Span (human CEA [3])	lysis of LS-174T cells by PBMC: Top (human CEA [3])	lysis of KATO III cells by PBMC: Bottom (human CEA [4])	lysis of KATO III cells by PBMC: LogEC50 (human CEA [4])	lysis of KATO III cells by PBMC: Span (human CEA [4])	lysis of KATO III cells by PBMC: Top (human CEA [4])	Bottom (best-fit) [5]	LogEC50 [5]	Span (best-fit) [5]	Top (best-fit) [5]	Binder
39.9	-1.52	1280	1320	-1040	-0.58	121000	120000	13.8	-2.69	91.7	106	60.1	-1.85	53	113	0.0164	-1.65	4.09	4.1	CEA/CD3 parental BsAb (bispecific antibody, V domains shown, also called hT84.66/SP34 bispecific antibody; CEA/CD3 parental bispecific antibody; copies: 2 + 2 + 2 + 2) VH 1: EVQLVESGGGLVQPGGSLRLSCAASGFNIKDTYMHWVRQAPGKGLEWVARIDPAQGNTKYADSVKGRFTISADTSKNTAYLQMNSLRAEDTAVYYCAPFGYYVSDYAMAYWGQGTLVTVSS VL 1: DIQLTQSPSSLSASVGDRVTITCRAGESVDIFGVGFLHWYQQKPGKAPKLLIYRASNLESGVPSRFSGSGSRTDFTLTISSLQPEDFATYYCQQTNEDPYTFGQGTKVEIK VH 2: not shown VL 2: not shown
–	–	–	–	3450	-0.0275	2670	6120	–	–	–	–	–	–	–	–	–	–	–	–	CEA/CD3OPT1a3b2b2 (bispecific antibody) chain 1: EVQLVESGGGLVQPGGSLRLSCAASGFNIKDTYMHWVRQAPGKGLEWVARIDPAQGNTKYADSVKGRFTISADTSKNTAYLQMNSLRAEDTAVYYCAPFGYYVSDYAMAYWGQGTLVTVSS chain 2: DIQLTQSPSSLSASVGDRVTITCRAGESVDIFGVGFLHWYQQKPGKAPKLLIYRASNLESGVPSRFSGSGSRTDFTLTISSLQPEDFATYYCQQTNEDPYTFGQGTKVEIK chain 3: EVQLVESGGGLVKPGGSLKLSCAASGFTFSTYAMNWVRQAPGKGLEWVARIRSKYNNYATYFADSVKDRFTISRDDSKNTAYLQMNNLRTEDTAVYYCVRHGNWGNSYISYWAYWGQGTTVTVSSQSVLTQPPSVSAAPGQRVTISCSGSTGAVTSGYYPNWYQQLPGTAPRLLIGGTKFLAPGTPDRFSGSSKSTSAALAISGVQSEDEADYYCALWYSNRWVFGGGTKLTVLG
52.8	-1.66	1400	1460	–	–	–	–	13.1	-2.86	92.2	105	54.7	-2.21	48.1	103	0.00466	-1.94	4.01	4.02	CEA/CD3OPT3a (bispecific antibody, V domains shown, Same format as m1; copies: 2 + 2 + 2 + 2) VH 1: EVQLVESGGGLVQPGGSLRLSCAASGFNIKDTYMHWVRQAPGKGLEWVARIDPAQGNTKYADSVKGRFTISADTSKNTAYLQMNSLRAEDTAVYYCAPFGYYVSDYAMAYWGQGTLVTVSS VL 1: DIQLTQSPSSLSASVGDRVTITCRAGESVDIFGVGFLHWYQQKPGKAPKLLIYRASNLESGVPSRFSGSGSRTDFTLTISSLQPEDFATYYCQQTNEDPYTFGQGTKVEIK VH 2: not shown VL 2: not shown
–	–	–	–	3100	-0.27	10700	13800	11.3	-1.92	93.6	105	63.8	-0.332	34.6	98.5	0.00337	-1.81	4.06	4.06	CEA/CD3OPT1a3b2a (bispecific antibody, V domains shown, Same format as m1; also called OPT SP34 1a3b2a; copies: 2 + 2 + 2 + 2) VH 1: EVQLVESGGGLVQPGGSLRLSCAASGFNIKDTYMHWVRQAPGKGLEWVARIDPAQGNTKYADSVKGRFTISADTSKNTAYLQMNSLRAEDTAVYYCAPFGYYVSDYAMAYWGQGTLVTVSS VL 1: DIQLTQSPSSLSASVGDRVTITCRAGESVDIFGVGFLHWYQQKPGKAPKLLIYRASNLESGVPSRFSGSGSRTDFTLTISSLQPEDFATYYCQQTNEDPYTFGQGTKVEIK VH 2: EVQLVESGGGLVKPGGSLKLSCAASGFTFSTYAMNWVRQAPGKGLEWVARIRSNYNNYATYYADSVKDRFTISRDDSKNTAYLQMNNLRTEDTAVYYCVRHGNWGNSYISYWAYWGQGTTVTVSS VL 2: not shown
–	–	–	–	1600	-0.102	62800	64500	12.1	-2.69	96.6	109	64.6	-0.946	39.4	104	0.00304	-1.84	4.03	4.03	CEA/CD3OPT1a3b (bispecific antibody, V domains shown, Same format as m1; also called OPT SP34 1a3b; copies: 2 + 2 + 2 + 2) VH 1: EVQLVESGGGLVQPGGSLRLSCAASGFNIKDTYMHWVRQAPGKGLEWVARIDPAQGNTKYADSVKGRFTISADTSKNTAYLQMNSLRAEDTAVYYCAPFGYYVSDYAMAYWGQGTLVTVSS VL 1: DIQLTQSPSSLSASVGDRVTITCRAGESVDIFGVGFLHWYQQKPGKAPKLLIYRASNLESGVPSRFSGSGSRTDFTLTISSLQPEDFATYYCQQTNEDPYTFGQGTKVEIK VH 2: EVQLVESGGGLVKPGGSLKLSCAASGFTFSTYAMNWVRQAPGKGLEWVARIRSKYNNYATYYADSVKDRFTISRDDSKNTAYLQMNNLRTEDTAVYYCVRHGNWGNSYISYWAYWGQGTTVTVSS VL 2: not shown
88.9	-2.09	-30.4	58.5	–	–	–	–	–	–	–	–	–	–	–	–	–	–	–	–	CEA/CD3OPT2 (bispecific antibody, V domains shown) VH 1: EVQLVESGGGLVQPGGSLRLSCAASGFNIKDTYMHWVRQAPGKGLEWVARIDPAQGNTKYADSVKGRFTISADTSKNTAYLQMNSLRAEDTAVYYCAPFGYYVSDYAMAYWGQGTLVTVSS VL 1: DIQLTQSPSSLSASVGDRVTITCRAGESVDIFGVGFLHWYQQKPGKAPKLLIYRASNLESGVPSRFSGSGSRTDFTLTISSLQPEDFATYYCQQTNEDPYTFGQGTKVEIK VH 2: EVQLVESGGGLVKPGGSLKLSCAASGFTFNKYAMNWVRQAPGKGLEWVARIRSNYNNYATTFADSVKDRFTISRDDSKNTAYLQMNNLRTEDTAVYYCVRHGNFGNSYISYWAYWGQGTTVTVSS VL 2: not shown
49.9	-0.801	1150	1200	1570	-0.0022	130000	132000	17.3	-2.81	89.2	106	52.5	-0.944	51.7	104	0.0666	-1.32	4.02	4.09	CEA/CD3OPT1a (bispecific antibody, V domains shown, Same format as m1; also called OPTSP34 1a; copies: 2 + 2 + 2 + 2) VH 1: EVQLVESGGGLVQPGGSLRLSCAASGFNIKDTYMHWVRQAPGKGLEWVARIDPAQGNTKYADSVKGRFTISADTSKNTAYLQMNSLRAEDTAVYYCAPFGYYVSDYAMAYWGQGTLVTVSS VL 1: DIQLTQSPSSLSASVGDRVTITCRAGESVDIFGVGFLHWYQQKPGKAPKLLIYRASNLESGVPSRFSGSGSRTDFTLTISSLQPEDFATYYCQQTNEDPYTFGQGTKVEIK VH 2: EVQLVESGGGLVKPGGSLKLSCAASGFTFSTYAMNWVRQAPGKGLEWVARIRSKYNNYATYYADSVKDRFTISRDDSKNTAYLQMNNLRTEDTAVYYCVRHGNFGNSYISYWAYWGQGTTVTVSS VL 2: not shown
119	-5.66	-41.4	78	–	–	–	–	–	–	–	–	–	–	–	–	–	–	–	–	CEA/CD3OPT3 (bispecific antibody, V domains shown) VH 1: EVQLVESGGGLVQPGGSLRLSCAASGFNIKDTYMHWVRQAPGKGLEWVARIDPAQGNTKYADSVKGRFTISADTSKNTAYLQMNSLRAEDTAVYYCAPFGYYVSDYAMAYWGQGTLVTVSS VL 1: DIQLTQSPSSLSASVGDRVTITCRAGESVDIFGVGFLHWYQQKPGKAPKLLIYRASNLESGVPSRFSGSGSRTDFTLTISSLQPEDFATYYCQQTNEDPYTFGQGTKVEIK VH 2: EVQLVESGGGLVKPGGSLKLSCAASGFTFNKYAMNWVRQAPGKGLEWVARIRSKYNNYATYYADSVKDRFTISRDDSKNTAYLQMNNLRTEDTAVYYCVRHGQWGNSYISYWAYWGQGTTVTVSS VL 2: not shown
